Reference: PMC3629973 (Nuclear medicine and biology, 2012)
Entries after “also recorded” stand apart in the source; their conditions may differ.

Key:
[1] = later time points; cited from earlier work
[2] = tested on: PC-3 tumor uptake in nude mice; conditions: mouse, in vivo; cited from earlier work
[3] = tested on: PC-3 cells; test: In vitro internalization assay; type: cell-based, human; conditions: 37°C, postincubation
[4] = Biodistribution in healthy CF-1 mice; type: in vivo, mouse; conditions: female, CF-1, mouse, iv, 750 kBq, total radioactivity
[5] = tested on: CF-1 mice; test: Biodistribution in healthy CF-1 mice; type: in vivo, mouse; conditions: CF-1 mice, tail vein injection, after 1 h p.i.
[6] = tested on: PC-3 tumor-bearing SCID mouse; test: MicroPET/CT imaging; type: in vivo; conditions: PC-3 tumor-bearing mouse, 26 MBq via tail vein, 15 h p.i.
[7] = in vivo; conditions: female, SCID, mouse, iv, 750 kBq, total radioactivity; for tissue uptake at 1 h / tissue uptake at 4 h / tissue uptake at 24 h: Biodistribution
[8] = Biodistribution in PC-3 tumor-bearing SCID mice; conditions: female, mouse, in vivo, iv, total radioactivity; for tissue uptake at 24 h: 24 h p.i.
[9] = tested on: PC-3 tumor-bearing SCID mice; test: Biodistribution in PC-3 tumor-bearing SCID mice; conditions: PC-3 tumor-bearing SCID mice, tail vein injection, 1 h p.i., mean±S.D., n=5, bilateral xenografts
[10] = target: αvβ3 receptors on PC-3 cells (Homo sapiens, UniProt P05106+P06756); test: Cell binding assay, displacement of 125I-Echistatin in PC-3 cells
αvβ3 receptors on PC-3 cells, sequence (P06756 31-889 limits assumed): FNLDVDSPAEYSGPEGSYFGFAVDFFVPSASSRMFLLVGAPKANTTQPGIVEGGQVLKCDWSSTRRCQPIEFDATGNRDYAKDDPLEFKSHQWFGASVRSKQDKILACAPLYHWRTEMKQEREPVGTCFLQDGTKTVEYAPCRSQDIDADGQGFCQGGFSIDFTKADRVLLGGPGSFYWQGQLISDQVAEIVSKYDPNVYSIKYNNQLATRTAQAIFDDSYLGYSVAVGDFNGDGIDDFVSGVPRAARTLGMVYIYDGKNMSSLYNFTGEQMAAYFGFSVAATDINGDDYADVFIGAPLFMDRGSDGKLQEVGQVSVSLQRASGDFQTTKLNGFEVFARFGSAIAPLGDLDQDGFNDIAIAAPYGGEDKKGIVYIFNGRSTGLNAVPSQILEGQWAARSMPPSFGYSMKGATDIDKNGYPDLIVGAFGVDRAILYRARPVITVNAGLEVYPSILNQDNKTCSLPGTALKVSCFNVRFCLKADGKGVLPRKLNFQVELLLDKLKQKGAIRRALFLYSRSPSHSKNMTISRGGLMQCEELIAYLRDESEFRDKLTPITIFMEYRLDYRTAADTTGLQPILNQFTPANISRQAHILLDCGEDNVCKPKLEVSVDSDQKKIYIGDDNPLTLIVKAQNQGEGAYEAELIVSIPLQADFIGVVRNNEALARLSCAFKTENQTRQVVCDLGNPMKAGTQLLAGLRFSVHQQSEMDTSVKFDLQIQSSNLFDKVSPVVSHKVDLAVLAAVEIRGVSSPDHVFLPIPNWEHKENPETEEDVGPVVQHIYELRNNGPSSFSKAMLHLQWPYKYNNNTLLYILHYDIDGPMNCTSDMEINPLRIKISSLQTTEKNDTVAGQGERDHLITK
αvβ3 receptors on PC-3 cells, sequence (P06756 891-1048 partner limits assumed): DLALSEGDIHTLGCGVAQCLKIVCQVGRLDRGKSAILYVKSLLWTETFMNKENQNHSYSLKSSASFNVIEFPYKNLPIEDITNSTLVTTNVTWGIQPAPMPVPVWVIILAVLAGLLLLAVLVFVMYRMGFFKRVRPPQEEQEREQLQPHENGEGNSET
αvβ3 receptors on PC-3 cells, sequence (P05106 27-788): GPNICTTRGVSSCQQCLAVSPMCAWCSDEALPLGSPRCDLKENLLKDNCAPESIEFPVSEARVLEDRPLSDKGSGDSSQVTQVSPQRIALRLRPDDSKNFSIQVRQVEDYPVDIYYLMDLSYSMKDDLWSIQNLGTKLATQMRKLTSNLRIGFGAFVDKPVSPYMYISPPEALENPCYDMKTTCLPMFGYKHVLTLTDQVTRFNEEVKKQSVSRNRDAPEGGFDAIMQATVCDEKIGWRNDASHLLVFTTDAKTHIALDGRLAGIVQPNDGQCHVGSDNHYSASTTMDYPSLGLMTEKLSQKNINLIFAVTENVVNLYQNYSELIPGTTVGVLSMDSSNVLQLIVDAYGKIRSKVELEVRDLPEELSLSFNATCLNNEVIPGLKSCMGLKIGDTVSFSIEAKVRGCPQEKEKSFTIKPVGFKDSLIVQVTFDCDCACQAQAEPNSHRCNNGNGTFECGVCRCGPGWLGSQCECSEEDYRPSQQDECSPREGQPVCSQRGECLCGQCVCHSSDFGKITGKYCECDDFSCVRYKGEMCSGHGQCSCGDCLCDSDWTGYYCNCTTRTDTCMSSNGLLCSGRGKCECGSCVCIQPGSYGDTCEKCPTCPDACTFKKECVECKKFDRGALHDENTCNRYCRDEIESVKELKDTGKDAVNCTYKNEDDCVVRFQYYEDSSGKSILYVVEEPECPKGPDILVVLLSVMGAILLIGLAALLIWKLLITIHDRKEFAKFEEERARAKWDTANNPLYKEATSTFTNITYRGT

[11] = tested on: PC-3 cells; test: Blocking experiment, cellular uptake of tracer; type: cell-based, human; conditions: 50 μg blocker added 15 min prior to tracer
[12] = tested on: GRPr; conditions: read-out: GRPr binding affinity; nonmetallated probe; cited from earlier work

Compound: ^64Cu-NO3A-RGD-BBN(7-14)NH2
- Internalization rate compared to ^64Cu-NO2A-RGD-Glu-6-Ahx-BBN(7-14)NH2 [1]: approximately three times higher
- PC-3 tumor retention [2]: 2.04±0.35 %ID/g
- Retention in the kidneys [2]: 1.87±0.41 %ID/g

Compound: CSCC[C@H](NC(=O)[C@H](CC(C)C)NC(=O)[C@H](Cc1c[nH]cn1)NC(=O)CNC(=O)[C@@H](NC(=O)[C@H](C)NC(=O)[C@H](Cc1c[nH]c2ccccc12)NC(=O)[C@H](CCC(N)=O)NC(=O)CCCCCNC(=O)[C@H](CCC(=O)NCCCC[C@@H]1NC(=O)[C@@H](Cc2ccc(O)cc2)NC(=O)[C@H](CC(=O)O)NC(=O)CNC(=O)[C@H](CCCNC(=N)N)NC1=O)NC(=O)CN1CCN(CC(=O)O)CCN(CC(=O)O)CC1)C(C)C)C(N)=O [^64Cu-NO2A-RGD-Glu-6-Ahx-BBN(7-14)NH2, metal not drawn]
- Time of maximum internalization [3]: ~ 90 min
- tissue uptake at 1 h ([4]; pancreas): 5.9 ± 1.74 %ID/g
- tissue uptake dose at 1 h ([4]; whole blood): 0.42 %ID
- Urinary excretion [5]: ~85%
- MicroPET image quality [6]: high-quality, high-contrast images
- tissue uptake dose at 1 h [7]: 0.72 ± 0.1 %ID
- tissue uptake dose at 4 h [7]: 0.16 ± 0.05 %ID
- tissue uptake dose at 24 h [7]: 0.18 ± 0.02 %ID
- tissue uptake at 1 h ([7]; Bone): 0.52 ± 0.27 %ID/g
- tissue uptake at 4 h ([7]; Bone): 0.13 ± 0.08 %ID/g
- tissue uptake at 24 h ([7]; Bone): 0.13 ± 0.15 %ID/g
- tissue uptake at 1 h ([7]; Brain): 0.05 ± 0.01 %ID/g
- tissue uptake at 4 h ([7]; Brain): 0.04 ± 0.02 %ID/g
- tissue uptake at 24 h ([7]; Brain): 0.03 ± 0.02 %ID/g
- tissue uptake at 1 h ([7]; Heart): 0.35 ± 0.1 %ID/g
- tissue uptake at 4 h ([7]; Heart): 0.22 ± 0.05 %ID/g
- tissue uptake at 24 h ([7]; Heart): 0.48 ± 0.17 %ID/g
- tissue uptake at 1 h ([7]; Large intestine): 1.34 ± 0.11 %ID/g
- tissue uptake at 4 h ([7]; Large intestine): 6.86 ± 0.88 %ID/g
- tissue uptake at 24 h ([7]; Large intestine): 0.85 ± 0.18 %ID/g
- tissue uptake at 1 h ([7]; Lung): 0.97 ± 0.25 %ID/g
- tissue uptake at 1 h ([7]; Muscle): 0.22 ± 0.08 %ID/g
- tissue uptake at 4 h ([7]; Muscle): 0.09 ± 0.04 %ID/g
- tissue uptake at 24 h ([7]; Muscle): 0.08 ± 0.1 %ID/g
- tissue uptake at 1 h ([7]; Pancreas): 21.6 ± 3.3 %ID/g
- tissue uptake at 4 h ([7]; Pancreas): 13.2 ± 1.79 %ID/g
- tissue uptake at 24 h ([7]; Pancreas): 5.18 ± 0.57 %ID/g
- tissue uptake at 1 h ([7]; Small intestine): 5.21 ± 0.75 %ID/g
- tissue uptake at 4 h ([7]; Small intestine): 2.1 ± 0.4 %ID/g
- tissue uptake at 24 h ([7]; Small intestine): 0.78 ± 0.14 %ID/g
- tissue uptake at 1 h ([8]; ICR SCID, 750 kBq (~20 uCi)): 1.04 ± 0.08 %ID/g
- tissue uptake at 1 h ([8]; SCID, 750 kBq, Biodistribution, Bladder, PC-3 tumor-bearing SCID mice, tail vein injection, 1 h p.i., mean±S.D., n=5): 3.39 ± 3.54 %ID/g
- tissue uptake at 4 h ([8]; SCID, 750 kBq, Biodistribution, Bladder, PC-3 tumor-bearing SCID mice, tail vein injection, 4 h p.i., mean±S.D., n=5): 0.55 ± 0.33 %ID/g
- tissue uptake at 24 h ([8]; SCID, 750 kBq, Biodistribution, Bladder, PC-3 tumor-bearing SCID mice, tail vein injection, mean±S.D., n=5): 0.31 ± 0.29 %ID/g
- tissue uptake at 24 h ([8]; SCID, 750 kBq, Biodistribution, Tumor, PC-3 tumor-bearing SCID mice, tail vein injection, mean±S.D., n=5, bilateral xenografts): 2.42 ± 0.57 %ID/g
- Biodistribution, Tumor [9]: 3.95±1.04 %ID/g

Compound: ^64Cu-NO3A-RGD
- PC-3 tumor retention [2]: 0.55±0.32 %ID/g

Compound: ^natCu-NO2A-RGD
- Displacement of 125I-Echistatin (binding affinity for αvβ3 receptors) [10]: minimal displacement; also recorded: extremely poor binding affinity

Compound: ^64Cu-NO3A-BBN(7-14)NH2
- PC-3 tumor retention [2]: 0.44±0.39 %ID/g

Compound: NO2A-RGD
- Reduction of cellular uptake of ^64Cu-NO2A-RGD-Glu-6-Ahx-BBN(7-14)NH2 tracer [11]: 65%

Compound: NO3A-RGD-BBN(7-14)NH2
- IC50 [12]: 92.8 ± 3.53 nM
